Tests used:
HT-29 cells = test: Growth of tumors from xenografted human HT-29 cells in nude mice; type: in vivo; conditions: ip, 2 injections/week, Day 43
Method: FIG. 8: Effect of inoculation of orexin-A and C2 antibody on the growth of tumors developed by xenografted human HT-29 cells in nude mice. Colon adenocarcinoma derived cells, HT-29, were inoculated in the flank of nude mice at day 0. Mice were injected at day 1 (2 injections/week) intraperitoneally with 100 μl of orexin-A solution (1.4 μmoles of orexin-A/Kg (white circles)) or with 100 μl of C2 antibody solution (0.065 μmoles/Kg (black triangles) or 0.02 μmoles/Kg (white triangles)) or with 100 μl of PBS (black circles) for control. The inventors have tested the ability of C2 antibody to inhibit the tumor development of xenografted nude mice with the human colon adenocarcinoma cell line, HT-29. After subcutaneous injection of 1.5×10^6 HT-29 cells in mice, animals were treated by 2 intraperitoneal (ip) injection/week of Orexin-A (100 μg/injection corresponding to 1.4 μmoles of orexin-A/Kg) or two doses of C2 antibody (200 μg/injection or 50 μg/injection corresponding to 0.065 μmoles/Kg and 0.02 μmoles/Kg, respectively). Control was determined by ip injection of 100 μl of PBS. The experiment was conducted during 45 days and the tumor volume was estimated by measuring the short and long axes of developedtumors each ⅔ days.

[1] = tested on: HEK-OX1R cells expressing recombinant OX1R; test: Apoptosis in HEK-OX1R cells (annexin V-PE binding, Guava nexin kit); type: cell-based, human
AsPC-1 cells = test: Cell growth of pancreas cancer cell line AsPC-1; type: cell-based; conditions: 0.1 μM, 48 h
Method: (§1) Cells were treated for 48 h with 0.1 μM of each compound and then cells were counted. Results were expressed as the percentage of untreated cell number (Control).
(§2) We have tested the ability of antibodies to inhibit the cellular growth in cancer cell lines derived from colon cancer (SW48, LoVo and HCT-116 cells) and pancreas cancer (AsPC-1 cells). […] D4 and H7 have a weak effect. […] As previously described (see above) orexins are able to induce a mitochondrial apoptosis in cancer cell lines. We test the ability of antibodies to induce apoptosis in HEK-OX1R cells and colonic cancer cell line LoVo. […] This effect was dose-dependent. Indeed when HEK-OX1R cells were treated with 0.01 μM of C2 antibody, cell apoptosis was only of 6±0.7% of total cells.

[2] = tested on: HEK-OX1R cells expressing recombinant OX1R; test: Cell growth of HEK-OX1R cells (cell counting); type: cell-based, human; conditions: 0.1 μM, 48 h
[3] = tested on: CHO cells lines transfected with OX1R of rat; test: Cross-reaction: cells transfected with rat OX1R; type: cell-based; conditions: 0.1 μM, 48 h
SW48 cells = test: Cell growth of colon cancer cell line SW48; type: cell-based; conditions: 0.1 μM, 48 h
Method: as §1, §2

[4] = tested on: CHO cells lines transfected with OX1R of mouse; test: Cross-reaction: cells transfected with mouse OX1R; type: cell-based; conditions: 0.1 μM, 48 h
LoVo cancer cell line = test: Apoptosis in LoVo cancer cell line; type: cell-based
From the text: as §2

LoVo cells = test: Cell growth of colon cancer cell line LoVo; type: cell-based; conditions: 0.1 μM, 48 h
Method: as §1, §2

[5] = 100 μg/injection (1.4 μmoles/Kg)
[6] = 200 μg/injection (0.065 μmoles/Kg)
[7] = low dose, 50 μg/injection (0.02 μmoles/Kg)

In the case of “Orexin-A (QPLPDCCRQKTCSCRLYELLHGAGNHAAGILTL) [orexin A, a 33 amino acid neuropeptide, native OX1R ligand, reference compound]”, the “inhibition of tumor growth” value (HT-29 cells; [5]) is reported as “about 65%” and the tumor volume (HT-29 cells; [5]) is reported as about 570±100 mm^3.

`O=S(=O)(O)c1ccc2cc(N=Nc3cc(S(=O)(=O)O)c4cccnc4c3O)ccc2c1` [NSC-87877, reference compound] was tested, and the “effect of SHP-2 inhibitor on orexin-induced apoptosis” value ([1]; NSC-87877 50 μM) was “blocks orexin-induced apoptosis”.

B1: C2: human monoclonal anti-OX1R antibody from phage display; VH SEQ ID NO:1, VL SEQ ID NO:2 (antibody, V domains shown)
VH: EVQLVESGGSLVKPGGSLRLSCAASGFTFSNSYMNWVRQAPGKGLEWISSIYGSSRYIDYADFVKGRFTISRDNATNSLYLQMNSLRAEDTAVYYCVRSSSYYGSGMDVWGRGTLVTVSS
VL: QSVLTQPASVSGSPGQSITISCAGTSSDVGGYGSVSWYQQHPGKAPKLMIYYDSYRPSGVSNRFSGSKSGNTASLTISGLQAEDEADYYCSSNTNSSTRVFGGGTKLAVLG
modifications: Synthetic VH sequence of C2; Synthetic VL sequence of C2
With B1 the “inhibition of cell growth in AsPC-1 cells” value (AsPC-1 cells) was “cell growth inhibition similar to OxB effect”, the “reduction of HEK-OX1R cell number” value ([2]; versus untreated cells) was about 37±3% and the “inhibition of HEK-OX1R cellular growth in the presence of SHP inhibitor” value ([2]; with 50 μM NSC 87877) was “totally reversed”. The “promotion of apoptosis of cells transfected with rat OX1R” value [3] was “able to promote apotosis”, the “apoptosis in HEK-OX1R cells, % of total cells” value ([1]; 0.01 μM) was 6±0.7% and the “apoptosis in HEK-OX1R cells, % of total cells” value ([1]; 0.1 μM, 48 h) was 16±2%. For the same molecule, the “apoptosis and growth inhibition in the presence of SHP inhibitor” value ([1]; with NSC 87877) was “totally abolished”, the “inhibition of cell growth in SW48 cells” value (SW48 cells) was “inhibit the cell growth in SW48 cells similarly to OxB” and the “promotion of apoptosis of cells transfected with mouse OX1R” value [4] was “able to promote apotosis”. For the same molecule, the “apoptotic response in LoVo cancer cell line” value (LoVo cancer cell line; 0.01 μM) was “strongly reduce the apoptotic response”, the “induction of apoptosis in LoVo cancer cell line” value (LoVo cancer cell line; 0.1 μM, 48 h) was “able to induce apoptosis” and the “reduction of tumor development” value (HT-29 cells; [6]) was “about 60%”. For the same molecule, the tumor volume (HT-29 cells; [6]) was about 650±98 mm^3, the “inhibition of tumor growth” value (HT-29 cells; [7]) was 45% and the tumor volume (HT-29 cells; [7]) was about 885±130 mm^3. For the same molecule, the “inhibition of cell growth in LoVo cells” value (LoVo cells) was “inhibit the cell growth in LoVo cells similarly to OxB”.
